According to US20100303790A1, “USE OF BILIVERDIN REDUCTASE (BVR) AND BVR PEPTIDE FRAGMENTS TO TREAT CORONARY DISORDERS” (UNIVERSITY OF ROCHESTER, priority 2009, published 2010):
“Also recorded” adds a separate entry of the source. Where a SMILES comes first, the peptide text is derived from it. The star is where a group is joined. Cbz = O=C(OCc1ccccc1)*

T1: hBVR-derived peptide KKRILHC^281
T1 chain: KKRILHC

T2: hBVR-derived peptide KYCCSRK^296
T2 chain: KYCCSRK

B1: si-rBVR: retrovirus-expressed siRNA against rat BVR (SEQ ID NO:61, 62) (nucleic acid)
chain 1: GATCCCCTCTGCAGCATTCCTGAACCTGTTCAAGAGACAGGTTCAGGAATGCTGCAGATTTTTGGAAA
chain 2: AGCTTTTCCAAAAATCTGCAGCATTCCTGAACCTGTCTCTTGAACAGGTTCAGGAATGCTGCAGAGGG
modifications: the letters are possibly those of the target site
B2: si-rHO-2: retrovirus-expressed siRNA against rat HO-2 (SEQ ID NO:63, 64) (nucleic acid)
chain 1: GATCCCCGAAAACCATACCAAAATGGCATTCAAGAGATGCCATTTTGGTATGGTTTTCTTTTTGGAAA
chain 2: AGCTTTTCCAAAAAGAAAACCATACCAAAATGGCATCTCTTGAATGCCATTTTGGTATGGTTTTCGGG
modifications: the letters are possibly those of the target site
B3: rat biliverdin reductase (BVR), endogenous in perfused rat heart (protein)
chain: AEPKRKFGVVVVGVGRAGSVRLRDLKDPRSAAFLNLIGFVSRRELGSLDEVRQISLEDALRSQEIDVAYICSESSSHEDYIRQFLQAGKHVLVEYPMTLSFAAAQELWELAAQKGRVLHEEHVELLMEEFEFLRREVLGKELLKGSLRFTASPLEEERFGFPAFSGISRLTWLVSLFGELSLISATLEERKEDQYMKMTVQLETQNKGLLSWIEEKGPGLKRNRYVNFQFTSGSLEEVPSVGVNKNIFLKDQDIFVQKLLDQVSAEDLAAEKKRIMHCLGLASDIQKLCHQKK

Experiments:
[1] = system: rat neonatal cardiomyocytes; assay: BVR, HO-2 and HO-1 protein levels in rat neonatal cardiomyocytes (western blot); type: cell-based; conditions: for HO-2 protein level: MG132 50 μg/ml; for effect on isoproterenol-induced BVR protein expression / effect on isoproterenol-induced HO-2 protein expression: 10 μM isoproterenol, western blot
Procedure: Neonatal Rat Cardiomyocytes: Primary cultures of neonatal rat cardiomyocytes were prepared as described previously (Ding et al., “Functional Role of Phosphodiesterase 3 in Cardiomyocyte Apoptosis: Implication in Heart Failure,” Circulation 111:2469-2476 (2005) which is hereby incorporated by reference in its entirety). Briefly, fragmented ventricular tissue from 1-2 day old Sprague-Dawley rats was subjected to multiple rounds of enzymatic digestion with collagenase II (Worthington, Lakewood, N.J.). The cells were then collected by low speed centrifugation at 4° C. Non-myocytes were removed by two rounds of pre-plating the cells on culture dishes. The enriched cardiomyocytes were cultured in DMEM with 10% FBS and 10% horse serum. The day after cell adhesion, 10 μM cytosine 1-β-D-arabinofuranoside (Sigma, St. Louis, Mo.) was added to inhibit the growth of contaminating non-myocytes.
Plasmids and Constructs: Adenovirus for expression of an endogenous PKA inhibitor (PKA251 bp) was prepared as described previously (Ding et al., “Functional Role of Phosphodiesterase 3 in Cardiomyocyte Apoptosis: Implication in Heart Failure,” Circulation 111:2469-2476 (2005), which is hereby incorporated by reference in its entirety). Rat BVR and HO-2 siRNA were designed based on the human sequences (Miralem et al., “Small Interference RNA-Mediated Gene Silencing of Human Biliverdin Reductase, but not that of Heme Oxygenase-1, Attenuates Arsenite-Mediated Induction of the Oxygenase and Increases Apoptosis in 293A Kidney Cells,” J Biol Chem 280:17084-17092 (2005), which is hereby incorporated by reference in its entirety). The BVR targeting site is at nucleotides 94-114, and the HO-2 targeting site is at nucleotides 73-93, downstream of the start codon in each case. Oligonucleotides containing the sequence of a 21 nucleotide small interference RNA were synthesized as follows: BVR siRNA, 5′-GATCCCC ([…]) TTCAAGAG ([…]) TTTTTGGAAA (SEQ ID NO:61) and 5′-AGCTTTTCCAAAAA ([…]) TCTCTTGAA ([…]) GGG (SEQ ID NO:62; HO-2 siRNA, 5′-GATCCCC ([…]) TTCAAGAGA ([…]) TTTTTGGAAA (SEQ ID NO:63) and 3′-AGCTTTTCCAAAAA ([…]) TCTCTTGAA ([…]) GGG (SEQ ID NO:64). Complementary oligonucleotides were annealed, then ligated into pSuper-Retro vector (OligoEngine Co. Seattle, Wash.). E. coli clones containing the desired constructs were identified by restriction analysis and verified by DNA sequencing. The retroviral DNA vectors for generating BVR si-rRNA and […] were transfected into the HEK293A packaging cell line, and the supernatant containing the expressed si-rBVR or si-rHO-2 retrovirus was then titrated in NIH3T3 cells. Retrovirus expressing siRNA was used to infect cells at a multiplicity of infection of 4 plaque-forming units/cell. The plasmid pcDNA-hBVR has previously been described (Lerner-Marmarosh et al., “Human Biliverdin Reductase: A Member of the Insulin Receptor Substrate Family with Serine/Threonine/Tyrosine Kinase Activity,” Proc Natl Acad Sci US A 102:7109-7114 (2005), which is hereby incorporated by reference in its entirety); pcDNA-hHO2 was constructed by cloning the HO-2 open reading frame into pcDNA3. […]

[2] = system: rat neonatal cardiomyocytes; assay: Apoptosis of cardiomyocytes (cleaved caspase-3, TUNEL, DNA electrophoresis); type: cell-based; conditions: for DNA fragmentation by electrophoresis of genomic DNA: ISO treatment coupled with siRNA; for number of cardiac apoptotic cells (TUNEL): siRNA followed by isoproterenol, relative to absence of ISO stimulation; for level of cleaved caspase-3 protein: with 10 μM isoproterenol, 24 hours
Procedure: Western Blot Analysis: Cell lysates were prepared by homogenization in RIPA buffer (40 mM Tris-HCl, pH 7.5, 1 mM EDTA, 1 mM DTT, 0.1 mM Na3VO4, 10 μg/ml aprotinin, 5 μg/ml pepstatin, 20 μg/ml leupeptin, 1 mM bezamidine followed by centrifugation at 800×g for 10 minutes at 4° C. (Ding et al., “Functional Role of Phosphodiesterase 3 in Cardiomyocyte Apoptosis: Implication in Heart Failure,” Circulation 111:2469-2476 (2005), which is hereby incorporated by reference in its entirety). Supernatant proteins were resolved by SDS-PAGE and transferred to nitrocellulose. Western blots were examined using antibodies against β-actin (Cell Signaling), BVR (Huang et al., “Detection of 10 Variants of Biliverdin Reductase in Rat Liver by Two-Dimensional Gel Electrophoresis,” J Biol Chem 264:7844-7849 (1989), which is hereby incorporated by reference in its entirety), HO-1, HO-2 (Panahian et al., “Site of Injury-Directed Induction of Heme Oxygenase-1 and -2 in Experimental Spinal Cord Injury Differential Functions in Neuronal Defense Mechanisms?” J Neurochem 76:539-554 (2001), which is hereby incorporated by reference in its entirety), and cleaved caspase-3 (Cell Signaling, Beverly Mass.). The secondary antibody was horseradish peroxidase-conjugated goat anti-rabbit IgG (1:2,000, Bio-Rad).
Analysis of Apoptosis: The terminal deoxyribonucleotide transferase-mediated dUTP nick-end labeling (TUNEL) assay was used to detect in situ DNA fragmentation, using the In Situ Cell Death Detection Kit (Roche) as described previously (Ding et al., “Functional Role of Phosphodiesterase 3 in Cardiomyocyte Apoptosis: Implication in Heart Failure,” Circulation 111:2469-2476 (2005), which are hereby incorporated by reference in their entirety). In addition, the cells were stained for cardiomyocyte-specific sarcomeric α-actinin with the antibody EF-53 to distinguish cardiomyocytes from contaminating fibroblasts; and only EF-53 positive cells were counted. Three independent experiments were performed and an average of 1,000 EF-53 positive cells from random fields were analyzed.
DNA Electrophoresis: Total cellular DNA was isolated from untreated and treated cells by lysis in 10 mM Tris-HCl, pH 7.8; 1 mM, EDTA, 10 mM NaCl, 1% (w/v) SDS and 1 mg/ml proteinase K at 60° C. for 2 hours. The lysate was extracted twice each with phenol-choloroform (1:1, v/v) and chloroform, followed by precipitation with ethanol. The precipitate was collected by centrifugation, washed once in 70% ethanol, and resuspended in TE containing 1 mg/ml RNase at 37° C. for 30 min. DNA was resolved by electrophoresis in 2.0% agarose gels containing ethidium bromide.
It was noted that the level of cleaved caspase-3 protein, a marker for apoptosis, was increased by the inhibition of isoproterenol-induced expression of either BVR or HO-2 using siBVR or si-rHO-2, respectively (FIG. 6A). […] That apoptosis was occurring in cardiomyocytes, per se, was determined by triple staining of the cells with anti-α-actinin antibody to detect cardiomyocytes, TUNEL staining for cells undergoing apoptosis, and DAPI to detect nuclei (FIG. 6C). The merged images in FIG. 6C clearly indicate that the cardiomyocytes are undergoing apoptosis.

[3] = biological target: T1, hBVR-derived peptide KKRILHC^281
[4] = biological target: T2, hBVR-derived peptide KYCCSRK^296

Row | Molecule | HO-2 protein level ([1]; BVR gene expression inhibited by si-BVR) | HO-2 protein level ([1]; absence of isoproterenol stimulation) | effect on isoproterenol-induced BVR protein expression [1] | effect on isoproterenol-induced HO-2 protein expression [1] | DNA fragmentation by electrophoresis of genomic DNA [2] | number of cardiac apoptotic cells (TUNEL) [2] | level of cleaved caspase-3 protein [2] | BVR activity (rate of conversion of biliverdin to bilirubin at pH 6.7, NADH cofactor) in perfused rat heart [3] | BVR activity (rate of conversion of biliverdin to bilirubin at pH 6.7, NADH cofactor) in perfused rat heart [4]
1 | CC(C)C[C@@H](C=O)NC(=O)[C@H](CC(C)C)NC(=O)[C@H](CC(C)C)NC(=O)OCc1ccccc1 [MG132] (Cbz-Leu-Leu-Leu-aldehyde) | increased the HO-2 protein levels | increased |  |  |  |  |  |  | 
2 | B1 |  |  | efficiently blocked | effectively blocked; also recorded: also blocked | DNA fragmentation could be detected | increase | increased |  | 
3 | B2 |  |  | no effect | ablated | DNA fragmentation could be detected | increase | increased |  | 
4 | B3 |  |  |  |  |  |  |  | peptide KKRILHC^281 blocked the activity of BVR, whether ISO was present or not | Treatment of the heart with peptide KYCCSRK^296 alone increased BVR activity
